Consider one molecule from PMC3904923 (2014).

The target of assay [1] is T1, dansylated calmodulin (rat, UniProt P0DP30 1-149, dansyl group covalently bound to CaM (position not given)). Nature of the assay: absence of Ca2+.
Assay [2] addresses T1, dansylated calmodulin. Nature of the assay: 3.9 uM Ca2+ (poor 1:1 fit, Bmax constrained).

B1: Kv7.2 CaM binding domain (residues 310–548), Q2AB WT (domain or fragment)
chain: not shown
In general, Kd refers to the concentration at which binding is half-saturated. Low values mean a tighter complex, high ones a looser complex. Turning to B1, the Kd with dansylated calmodulin [1] is 0.0048 µM; with dansylated calmodulin [2], 0.0214 µM.
